B1: MBP-PHAX103–196 (wild type) [human] / Human nuclear cap-binding complex (CBC): CBP80ΔNLS with CBP20 [human] (parent)
chain 1: SQKPPVAGGKKINNIWGAVLQEQNQDAVATELGILGMEGTIDRSRQSETYNYLLAKKLRKESQEHTKDLDKELDEYMHGGKKMGSKEEENGQGH
chain 2: KTSDANETEDHLESLICKVGEKSACSLESNLEGLAGVLEADLPNYKSKILRLLCTVARLLPEKLTIYTTLVGLLNARNYNFGGEFVEAMIRQLKESLKANNYNEAVYLVRFLSDLVNCHVIAAPSMVAMFENFVSVTQEEDVPQVRRDWYVYAFLSSLPWVGKELYEKKDAEMDRIFANTESYLKRRQKTHVPMLQVWTADKPHPQEEYLDCLWAQIQKLKKDRWQERHILRPYLAFDSILCEALQHNLPPFTPPPHTEDSVYPMPRVIFRMFDYTDDPEGPVMPGSHSVERFVIEENLHCIIKSHWKERKTCAAQLVSYPGKNKIPLNYHIVEVIFAELFQLPAPPHIDVMYTTLLIELCKLQPGSLPQVLAQATEMLYMRLDTMNTTCVDRFINWFSHHLSNFQFRWSWEDWSDCLSQDPESPKPKFVREVLEKCMRLSYHQRILDIVPPTFSALCPANPTCIYKYGDESSNSLPGHSVALCLAVAFKSKATNDEIFSILKDVPNPNQDDDDDEGFSFNPLKIEVFVQTLLHLAAKSFSHSFSALAKFHEVFKTLAESDEGKLHVLRVMFEVWRNHPQMIAVLVDKMIRTQIVDCAAVANWIFSSELSRDFTRLFVWEILHSTIRKMNKHVLKIQKELEEAKEKLARQHKRRSDDDDRSSDRKDGVLEEQIERLQEKVESAQSEQKNLFLVIFQRFIMILTEHLVRCETDGTSVLTPWYKNCIERLQQIFLQHHQIIQQYMVTLENLLFTAELDPHILAVFQQFCALQA
chain 3: MSGGLLKALRSDSYVELSQYRDQHFRGDNEEQEKLLKKSCTLYVGNLSFYTTEEQIYELFSKSGDIKKIIMGLDKMKKTACGFCFVEYYSRADAENAMRYINGTRLDDRIIRTDWDAGFKEGRQYGRGRSGGQVRDEYRQDYDAGRGGYGKLAQNQ

One experiment covers variants of B1. Description: ITC. The settings on record: CBC pre-bound to the cap analog m7GpppG.
As usually defined, the Kd is the constant that tells how readily two partners part at equilibrium. Turning to chain 1 SQKPPVAGGKKINNIWGAVLQEQNQDAVATELGILGMEGTIDRSEQSETENELLAKKLRKESQEHTKDLDKELDEYMHGGKKMGSKEEENGQGH [chain 1 R45E Y50E Y52E], the equilibrium dissociation constant (Kd) was found to be 1.97 µM.

Still in this experiment, the particulars now being: CBC pre-bound to the cap analog m7GpppG (row 'CBC-m7GpppG + PHAX103–196 (R147E, Y152E, Y154E)').
For chain 1 SQKPPVAGGKKINNIWGAVLQEQNQDAVATELGILGMEGTIDRSEQSETENELLAKKLRKESQEHTKDLDKELDEYMHGGKKMGSKEEENGQGH [chain 1 R45E Y50E Y52E], the Kd was found to be 1.97 µM.

Values taken from publication PMC12350170, “Structural basis for the synergistic assembly of the snRNA export complex” (Nature Structural & Molecular Biology, 2025).
